Source: the supplement of paper PMC12042874
± gives the uncertainty stated by the source.

Assay: amyloid nucleation score (Sup35N fusion, yeast selection) (log enrichment); library NNK2; higher = more nucleation; inactive = no reads after selection
Method in brief: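 Growth for 7 days at 30°C on medium lacking adenine and uracil followed a 24-hour induction with 100 μM copper sulfate of psi-negative yeast expressing peptides of 20 random codons fused to Sup35N. Input and output plasmid inserts were sequenced with Illumina, and sequences with under 100 input reads were excluded. Nucleation score is the DiMSum log enrichment of output over input reads, centred on the mode score of non-aggregating sequences.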
In the case of NVMKSLFGRC, the amyloid nucleation score is reported as 0.359 ± 0.48.
For WKQLSSWIAIDSLRARKTLS, the amyloid nucleation score was -0.405 ± 0.42.
DSWFRPVLNFPCSRNANKSL gave an amyloid nucleation score of 1.95 ± 0.25.
Substance SCSANCRISLDSSRVVVPYY has an amyloid nucleation score of 0.571 ± 0.64.
With LFARWTFDNFSLRVVLQTRI the amyloid nucleation score was -0.861 ± 0.25.
Work on LASFFCFGIINTAC yielded an amyloid nucleation score of -0.019 ± 0.17.
With HLEPRIPLWMPVFGVSKVRS the amyloid nucleation score was 2.7 ± 0.12.
With SYMDE the amyloid nucleation score was 4.33 ± 0.06.
CRFLRA showed an amyloid nucleation score of -0.051 ± 0.79.
AANWGNRGYMVCEHCVIDV showed an amyloid nucleation score of -0.054 ± 0.46.
With RYINWLQYECNTLCAVDKSL the amyloid nucleation score was -0.436 ± 0.76.
IMSNGDRNAYYVKLHES gave an amyloid nucleation score of 0.123 ± 0.33.
For TSRDWCLDVPWKSHYYEVKY, the amyloid nucleation score was -0.518 ± 0.48.
HLFNGSGGLFSLTRSFMKS gave an amyloid nucleation score of -0.228 ± 1.1.
Work on ICSYVTVCVRLGFCKLNAMM yielded an amyloid nucleation score of 0.504 ± 0.51.
For LTYYLRSFVIPSWG, the amyloid nucleation score was “inactive”.
In the case of RRFLYPVGRGICMENADPFG, the amyloid nucleation score is reported as 1.29 ± 0.44.
With VRCNFISVWSCDVESIVVES the amyloid nucleation score was 5.096 ± 0.046.
MCTGRFFSITSYGCKESSYL showed an amyloid nucleation score of 1.49 ± 0.26.
LTSGVHCHKRTVHD gave an amyloid nucleation score of -0.263 ± 1.1.
Substance GTRYILVKGTMGYDLCYFLG has an amyloid nucleation score of 2.69 ± 0.13.
Work on TVFFGLVCRGPVKKDM yielded an amyloid nucleation score of 2.1 ± 0.17.
For RMRVIISR, the amyloid nucleation score was -0.881 ± 0.4.
Substance LSFVVL has an amyloid nucleation score of -0.67 ± 1.1.
In the case of IVCDWRTP, the amyloid nucleation score is reported as 0.614 ± 0.41.
Substance IKYRFGGLGPRPPNGRRFE has an amyloid nucleation score of 0.635 ± 0.65.
SLQFPISVNTYGDESCNSTV showed an amyloid nucleation score of -0.424 ± 1.1.
VVNSVVPKRSRLCHFYFTGM gave an amyloid nucleation score of -1.02 ± 0.63.
Substance RTNFVNGLAVVVRNM has an amyloid nucleation score of -0.015 ± 0.45.
Work on LLMQVIRPVNLLFRWRELWA yielded an amyloid nucleation score of 0.213 ± 0.34.
RRGSELINYRR gave an amyloid nucleation score of -0.341 ± 0.79.
IELGFFSGTVIVVSYWEFTR gave an amyloid nucleation score of -1.02 ± 1.
Substance GDYGPSDIMKKQFLFVSLVY has an amyloid nucleation score of -0.744 ± 1.1.
For FVVLFLFYFEVFAVYKVSLG, the amyloid nucleation score was “inactive”.
SNRRKSAGDSFVRWMCCLT showed an amyloid nucleation score of 2.61 ± 0.15.
Work on VYRDDCFHFLDTSQTGACLT yielded an amyloid nucleation score of 0.797 ± 0.4.
Work on VNTPDISGRHVSYFDFFVFY yielded an amyloid nucleation score of 6.337 ± 0.038.
Substance GIHRSMTFLTNQNRLIWSHG has an amyloid nucleation score of 1.17 ± 0.4.
VLAFRFYFAVVLGLMIVYG gave an amyloid nucleation score of -0.16 ± 0.62.
For STSSNGSEYHCLSI, the amyloid nucleation score was 1.05 ± 0.44.
Substance VLLKLVDLWL has an amyloid nucleation score of -0.017 ± 0.54.
In the case of RVTRG, the amyloid nucleation score is reported as “inactive”.
In the case of LRLSHMFLVNMSWGNVINLC, the amyloid nucleation score is reported as 3.28 ± 0.091.
In the case of DHFGGCYMSATRSWHDFKMG, the amyloid nucleation score is reported as “inactive”.
Substance WDDFTYGYRLRIYFLIFQRG has an amyloid nucleation score of -1.15 ± 1.1.
IYTLL showed an amyloid nucleation score of -0.228 ± 1.1.
For YFWGMFEYW, the amyloid nucleation score was “inactive”.
With YGFPDF the amyloid nucleation score was -1.12 ± 1.1.
Work on IPFQEWNSMFIKLSELTVES yielded an amyloid nucleation score of 3.97 ± 0.058.
YKVNWG showed an amyloid nucleation score of 0.854 ± 0.47.
In the case of LNSYPASV, the amyloid nucleation score is reported as “inactive”.
Work on NFFPCACNNGAPIKEDFTCR yielded an amyloid nucleation score of 2.84 ± 0.17.
In the case of LVVCKHVV, the amyloid nucleation score is reported as -0.323 ± 0.56.
In the case of GSNTSDHDNLD, the amyloid nucleation score is reported as -0.238 ± 0.5.
Work on FCTLCFSLCQ yielded an amyloid nucleation score of 1.82 ± 0.23.
Substance VISKYDWFK has an amyloid nucleation score of -0.255 ± 1.1.
For GTLWRFKESTMGLTGITAGT, the amyloid nucleation score was 0.987 ± 0.4.
LLAVFTSCYCQECYVEPALV gave an amyloid nucleation score of 5.55 ± 0.07.
For FITNHK, the amyloid nucleation score was “inactive”.
Work on SGHGLWLDAWCRLLDNRGYL yielded an amyloid nucleation score of -0.403 ± 0.44.
Substance YMTVLLMSVFNWSQSRRPP has an amyloid nucleation score of 3.55 ± 0.077.
For CPEDVAEFMCRALFRSISIG, the amyloid nucleation score was 0.45 ± 0.74.
Substance LGIVHGNNY has an amyloid nucleation score of -1.14 ± 0.76.
In the case of KCYSYCLLAL, the amyloid nucleation score is reported as -0.202 ± 1.1.
GVLYLFTVTVMDKKFTM showed an amyloid nucleation score of 3.5 ± 0.077.
LSRSMK gave an amyloid nucleation score of -0.326 ± 0.29.
For RFCHTSRGSGGLGRLCQLAL, the amyloid nucleation score was 0.157 ± 1.
For IYLGVCYFSALGRDFMSKWW, the amyloid nucleation score was 1.77 ± 0.15.
In the case of VFLYYRTILMWVVSGLL, the amyloid nucleation score is reported as -0.449 ± 0.63.
With STMSFFSIGKLPEIVVGDSY the amyloid nucleation score was -1.24 ± 0.75.
YRFRSLSM gave an amyloid nucleation score of -1.14 ± 0.4.
Substance IVAGFNSKWLSTDFNRTENR has an amyloid nucleation score of -0.517 ± 0.78.
STNYQLSLFR showed an amyloid nucleation score of 3.96 ± 0.086.
For DWVINS, the amyloid nucleation score was -0.462 ± 0.78.
In the case of RSRARSWFLDKDMLLSKDRA, the amyloid nucleation score is reported as “inactive”.
IGNDFNANM showed an amyloid nucleation score of -0.754 ± 0.76.
YYVDVLESISSGMFLYSQLV gave an amyloid nucleation score of -1.95 ± 0.54.
For ISLRMKEHVICSLVPFMSQI, the amyloid nucleation score was 0.664 ± 0.22.
Substance NAEFIPGYMISVWTSIATIT has an amyloid nucleation score of 0.359 ± 0.42.
For EGTFGAPFVTSLLSLRFECV, the amyloid nucleation score was -0.85 ± 0.63.
With SLMLQ the amyloid nucleation score was 0.706 ± 0.81.
For ATSMVSSTRVHVHFDHVRVE, the amyloid nucleation score was 6.54 ± 0.066.
VWDAEFSGPLRHEIMSGFVW showed an amyloid nucleation score of 0.08 ± 0.3.
Work on HCVLRSQT yielded an amyloid nucleation score of 2.38 ± 0.12.
LWRIVSWVECIRCTNP showed an amyloid nucleation score of 0.182 ± 0.79.
